This is an account of results in patent US20180016312A1 (Pieris, published 2018).

Test [1] concerns the target T1, human angiopoietin-2 (human, UniProt O15123 19-496, limits assumed).
T1 sequence (looked up): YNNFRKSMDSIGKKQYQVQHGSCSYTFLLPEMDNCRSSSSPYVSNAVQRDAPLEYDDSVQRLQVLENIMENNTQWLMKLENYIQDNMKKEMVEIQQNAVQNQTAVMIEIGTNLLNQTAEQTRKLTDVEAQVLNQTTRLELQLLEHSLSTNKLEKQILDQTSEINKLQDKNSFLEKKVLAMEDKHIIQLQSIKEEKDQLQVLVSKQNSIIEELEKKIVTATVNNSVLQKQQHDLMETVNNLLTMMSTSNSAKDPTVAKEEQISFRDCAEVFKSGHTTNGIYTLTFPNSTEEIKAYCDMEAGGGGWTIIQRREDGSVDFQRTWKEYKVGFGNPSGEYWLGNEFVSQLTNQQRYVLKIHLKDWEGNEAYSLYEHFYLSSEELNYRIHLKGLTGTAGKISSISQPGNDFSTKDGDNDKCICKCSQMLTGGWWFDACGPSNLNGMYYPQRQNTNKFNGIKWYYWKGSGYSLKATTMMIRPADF
Kind of test: cell-based or functional assay.

The target of the next test is T2, human angiopoietin-1 (human, UniProt Q15389 20-498, limits assumed).
T2 construct: Bought recombinant protein; also called human Ang-1; hAng-1
T2 sequence (looked up): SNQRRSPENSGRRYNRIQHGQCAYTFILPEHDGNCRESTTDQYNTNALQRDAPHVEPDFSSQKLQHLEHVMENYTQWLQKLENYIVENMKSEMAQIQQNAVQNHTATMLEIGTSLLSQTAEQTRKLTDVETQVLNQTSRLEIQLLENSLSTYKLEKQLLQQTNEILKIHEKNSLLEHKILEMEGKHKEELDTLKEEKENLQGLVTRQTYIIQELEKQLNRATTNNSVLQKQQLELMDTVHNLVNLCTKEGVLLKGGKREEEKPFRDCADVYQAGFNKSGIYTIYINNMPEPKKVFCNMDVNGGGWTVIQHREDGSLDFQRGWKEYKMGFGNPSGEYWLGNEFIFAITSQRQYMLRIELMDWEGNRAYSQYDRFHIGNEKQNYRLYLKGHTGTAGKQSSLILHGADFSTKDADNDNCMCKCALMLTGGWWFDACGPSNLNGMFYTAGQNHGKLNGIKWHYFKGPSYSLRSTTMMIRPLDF
Kind of test: competition ELISA format (FIG. 2). The method, then:
In the following detailed experimental protocol, incubation and washing steps were performed as described above in the competition ELISA protocol (see Example 5).
Background: An ELISA detects its analyte on a solid surface through an enzyme-linked reagent.

Test [2] deals with T1, human angiopoietin-2. Kind of test: ELISA; Ang-2 coated, mutein detected by anti-Streptag-HRP. As for the experimental part: Binding of muteins was tested by a sandwich ELISA assay.
20 μl of serially diluted muteins were incubated in PBS-T/BSA for 1h at room temperature (RT).
The residual supernatants were discarded and 20 μl HRP-labeled anti-Streptag antibody was added at a predetermined optimal concentration in PBS-T/BSA and incubated for 1 h at RT. After washing, 20 μl fluorogenic HRP substrate (QuantaBlu, Thermo) was added to each well, and the reaction was allowed to proceed for 15 to 60 minutes. The fluorescence intensity of every well on the plate was read using a fluorescence microplate reader (Tecan or Molecular Devices). Curve fitting was performed using GraphPad Prism 4 software.

Test [3] addresses T1, human angiopoietin-2. As to the kind of experiment: SPR Biacore T200; upper end of the range, tied to SEQ ID NO: 7 by Table 3. As for the experimental part:
(§1) In the SPR affinity assay, biotinylated muteins and negative control were captured on a sensor chip CAP using the Biotin CAPture Kit (GE Healthcare): Sensor Chip CAP is pre-immobilized with an ssDNA oligo. Undiluted Biotin CAPture Reagent (streptavidin conjugated with the complementary ss-DNA oligo) was applied at a flow rate of 2 μl/min for 300 s. Subsequently, 0.02 μg/mL of biotinylated muteins or negative control were applied for 300 s at a flow rate of 5 μl/min. […] The reference channel was loaded with Biotin CAPture Reagent only.
(§2) Applying a flow rate of 30 μL/min, a multi cycle kinetics approach was used with a sample contact time of 180 s and a dissociation time of 4600 s. All measurements were performed at 25° C. […] Data were evaluated with Biacore T200 Evaluation software (V 1.0). Double referencing was used. A 1:1 Binding model was used to fit the raw data even though the analyte was known to be a multimer.

Test [4] has as its target T1, human angiopoietin-2. Kind of test: SPR Biacore T200; biotinylated mutein captured, hAng-2 analyte, 1:1 model, 25 C. The method, then: as §1, §2
In general terms: SPR reads the build-up and loss of mass on a sensor chip optically.

Test [5] has as its target T1, human angiopoietin-2. Kind of test: competition ELISA; 0.5 nM hAng-2 pre-incubated with binder, free hAng-2 captured on hTie-2 Fc (competitor). The method, then:
All incubation steps were performed with shaking at 300 rpm, and the plate was washed after each incubation step with 80 μl PBS-T buffer (PBS, 0.05% Tween 20) for five times using a Biotek EL405 select CW washer (Biotek). In the first step, a 384 well plate was directly coated with 20 μl of soluble human hTie-2 Fc (Reliatech) at a concentration of […] in PBS over night at 4 ° C. After washing, h Tie-2 Fc coated wells were blocked with 60 μl PBS-T/BSA (2% BSA in PBS containing 0.1% Tween 20) for 1 h at room temperature.
Curve fitting was performed using GraphPad Prism 4 software.

Test [6] addresses T1, human angiopoietin-2. As to the kind of experiment: competition cell ECL; hAng-2 pre-incubated with binder, free Ang-2 captured on HEK:hTie-2 cells (competitor). The method, then: (§3) All incubation steps were performed at room temperature, and the plate was washed after each incubation step with 80 μl PBS buffer for two times using a Biotek EL405 select CW washer (Biotek). In the first step, a 384 well plate was precoated for 5 minutes with poly D lysine and washed twice with PBS. 10⁴ HEK:hTie-2 cells per well were seeded and allowed to adhere to the surface of the wells overnight at 37° C. . After washing, cell coated wells were blocked with 60 μl PBS/Casein (2% Casein in PBS) for 1 h at room temperature.
(§4) After washing, 35 μl surfactant-free reading buffer was added to each well and the ECL signal of every well was read using a Mesoscale Discovery reader.

For a further test, the target named is T3, mouse angiopoietin-2 (mouse, UniProt O35608 19-496, limits assumed).
T3 construct: Bought recombinant protein; also called mouse Ang-2; mAng-2
T3 sequence (looked up): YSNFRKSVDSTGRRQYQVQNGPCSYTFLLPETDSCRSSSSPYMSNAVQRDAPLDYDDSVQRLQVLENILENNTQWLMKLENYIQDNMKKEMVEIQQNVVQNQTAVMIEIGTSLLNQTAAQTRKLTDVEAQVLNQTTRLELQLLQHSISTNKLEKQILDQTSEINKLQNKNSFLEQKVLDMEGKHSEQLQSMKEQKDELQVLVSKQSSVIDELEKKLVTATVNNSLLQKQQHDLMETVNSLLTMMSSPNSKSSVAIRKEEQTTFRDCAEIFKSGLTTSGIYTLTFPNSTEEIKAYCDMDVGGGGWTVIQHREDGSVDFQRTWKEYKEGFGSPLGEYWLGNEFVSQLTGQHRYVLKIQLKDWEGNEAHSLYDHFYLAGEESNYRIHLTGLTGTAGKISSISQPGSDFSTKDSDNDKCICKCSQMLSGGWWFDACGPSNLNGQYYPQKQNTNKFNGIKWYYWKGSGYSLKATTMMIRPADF
Kind of test: competition cell ECL; mAng-2 pre-incubated with binder, free Ang-2 captured on HEK:hTie-2 cells (competitor). As for the experimental part:
as §3, §4

For test [7], the target named is T1, human angiopoietin-2. As to the kind of experiment: SPR Biacore T200; lower end of the range, tied to SEQ ID NO: 11 by Table 3. As for the experimental part:
as §1, §2

Test [8] deals with T1, human angiopoietin-2. Kind of test: SPR Biacore T200; biotinylated SEQ ID NO: 16 captured, hAng-2 analyte. The method, then:
as §1, §2

B1: hNGAL lipocalin mutein SEQ ID NO: 7 (designed binder)
chain: QDSTSDLIPAPPLSKVPLQQNFQDNQFHGKWYVVGHAGNYILREDKDPEKMWATIYELKEDKSYDVTEVSFGPKKCNYRIWTFVPGSQPGEFTLGGIKSPPGDTSTLVRVVSTNYNQHAMVFFKHVLQNREFFEITLYGRTKELTSELKENFIRFSKSLGLPENHIVFPVPIDQCIDGSAWSHPQFEK
notes: Mutein of mature hNGAL; Biotinylated with NHS-PEG4-Biotin for the SPR assay
The EC50 is the concentration that produces a half-maximal response. A high value points to a less potent agent. The Kd is a measure of binding affinity in units of concentration. A word on the koff: it is a measure of how fast the partners let go of each other. Low readings indicate slow dissociation, high ones fast dissociation. As usually defined, the IC50 is the concentration that gives 50% inhibition. Take B1: in the test with human angiopoietin-2 [1], the “IC50 mean, LEC proliferation assay (CellTiter-Glo)” value (shortened to “IC50 mean, LEC proliferation assay”) is 0.199 nM. For the same molecule, the binding result with human angiopoietin-1 is recorded as “binds”. The EC50 with human angiopoietin-2 [2] was 2.1 nM. Besides, the values for the Kd with human angiopoietin-2 [3] and in the test with human angiopoietin-2 [4] were 0.2 to 1.4 nM and 1.43 nM, respectively. This molecule also had a koff with human angiopoietin-2 [4] of 0.00026 s⁻¹. Further, the values for the IC50 with human angiopoietin-2 [5], in the test with human angiopoietin-2 [6] and with mouse angiopoietin-2 were 0.0619 nM, 3.6 nM and 1.23 nM, respectively.

B2: hNGAL lipocalin mutein SEQ ID NO: 11 (designed binder)
chain: QDSTSDLIPAPPLSKVPLQQNFQDNQFHGKWYVVGQAGNYILREDKDPVKMWATIYELKEDKSYDVTEVSFGPKKCNYRIWTFVPGSQPGEFTLGGIKSLPGGTSTLVRVVSTNYNQHAMVFFKHVLQNREFFEITLYGRTKELTSELKENFIRFSKSLGLPENHIVFPVPIDQCIDGSAWSHPQFEK
notes: as for B1
With B2, in the test with human angiopoietin-2 [1], the “IC50 mean, LEC proliferation assay” value is 0.169 nM. The molecule also registered an EC50 with human angiopoietin-2 [2] of 2.3 nM. Besides, the results for the Kd with human angiopoietin-2 [7] and with human angiopoietin-2 [4] were 0.2 to 1.4 nM and 0.21 nM, respectively. In addition, in the test with human angiopoietin-2 [4], the koff was found to be 0.00087 s⁻¹. For the same molecule, the IC50 with human angiopoietin-2 [5] is 0.0988 nM; in the test with human angiopoietin-2 [6] it was 4.79 nM; in the test with mouse angiopoietin-2 it was 1.45 nM.

B3: hNGAL lipocalin mutein SEQ ID NO: 8 (designed binder)
chain: QDSTSDLIPAPPLSKVPLQQNFQDNQFHGKWYVVGQAGNYILREDKDPGKMWATIYELKEDKSYDVTEVSFGAKKCNYRIWTFVPGSQPGEFTLGGIKSDPGGTSTLVRVVSTNYNQHAMVFFKHVLQNREFFEITLYGRTKELTSELKENFIRFSKSLGLPENHIVFPVPIDQCIDGSAWSHPQFEK
notes: as for B1
On to B3, for which, in the test with human angiopoietin-2 [1], the “IC50 mean, LEC proliferation assay” value was 0.078 nM. In addition, the binding result with human angiopoietin-1 was “binds”. The molecule further registered an EC50 with human angiopoietin-2 [2] of 2.4 nM. The molecule further gave a Kd in the test with human angiopoietin-2 [4] of 0.37 nM. Also, the koff in the test with human angiopoietin-2 [4] turned out to be 0.00013 s⁻¹. Further, the IC50 with human angiopoietin-2 [5] came out at 0.0708 nM; in the test with human angiopoietin-2 [6] it was 3.75 nM; with mouse angiopoietin-2 it was 1.25 nM.

B4: mature hNGAL (SEQ ID NO: 16), negative control (other)
chain: QDSTSDLIPAPPLSKVPLQQNFQDNQFQGKWYVVGLAGNAILREDKDPQKMYATIYELKEDKSYNVTSVLFRKKKCDYWIRTFVPGCQPGEFTLGNIKSYPGLTSYLVRVVSTNYNQHAMVFFKKVSQNREYFKITLYGRTKELTSELKENFIRFSKSLGLPENHIVFPVPIDQCIDG
notes: Used as negative control; Biotinylated for the SPR assay; also called human lipocalin 2; human NGAL
As for B4, the binding result with human angiopoietin-2 [8] was “no binding (tested: human Ang-2 at 1-27 nM)”.
